For this test, the target named is T1, CD3 epsilon homodimer protein (UniProt P07766 23-126).
T1 construct: construct not described; homodimer as printed; also called CD3 (CD3 epsilon)
In words: SPR Biacore T200, CD3 epsilon homodimer immobilized; vs unaltered GLS3000. (In SPR one partner is held on a chip, and binding of the other changes the refractive index at the surface.)
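Note: antibody variants flowed as analyte over CD3 epsilon homodimer amine-coupled to a CM4 chip, at 25 °C in HBS-EP+ running buffer, fitted with Biacore T200 Evaluation Software.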

T1 sequence (P07766 23-126): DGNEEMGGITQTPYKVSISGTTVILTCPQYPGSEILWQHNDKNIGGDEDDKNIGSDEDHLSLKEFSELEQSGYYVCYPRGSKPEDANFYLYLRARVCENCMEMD

B1: GLS3000 H27dR (Kabat) L chain altered form, one-arm antibody with CE115HA000 (antibody, human IgG1, kappa, L234A L235A, N297A, name in Kabat numbering)
heavy: QVQLVESGGGVVQPGRSLRLSCAASGFTFSNAWMHWVRQAPGKGLEWVAQIKAKSNNYATYYAESVKGRFTISRDDSKNSLYLQMNSLKTEDTAVYYCRYVHYGAYYGVDAWGQGTTVTVSSASTKGPSVFPLAPSSKSTSGGTAALGCLVKDYFPEPVTVSWNSGALTSGVHTFPAVLQSSGLYSLSSVVTVPSSSLGTQTYICNVNHKPSNTKVDKKVEPKSCDKTHTCPPCPAPEAAGGPSVFLFPPKPKDTLMISRTPEVTCVVVDVSHEDPEVKFNWYVDGVEVHNAKTKPREEQYASTYRVVSVLTVLHQDWLNGKEYKCKVSNKALPAPIEKTISKAKGQPREPQVYTLPPSRCELTKNQVSLSCAVKGFYPSDIAVEWESNGQPENNYKTTPPVLDSDGSFFLVSKLTVDKSRWQQGNVFSCSVMHEALHNHYTQKSLSLSPDYKDDDDK
chain: EPKSSDKTHTCPPCPAPELLGGPSVFLFPPKPKDTLMISRTPEVTCVVVDVSHEDPEVKFNWYVDGVEVHNAKTKPREEQYNSTYRVVSVLTVLHQDWLNGKEYKCKVSNKALPAPIEKTISKAKGQPREPQVCTLPPSRDELTKNQVSLWCLVKGFYPSDIAVEWESNGQPENNYKTTPPVLDSDGSFFLYSKLTVDKSRWQQGNVFSCSVMHEALHNRYTQKSLSLSP
light: DIVMTQSPLSLPVTPGEPASISCRSSQSLVRSNRNTYLHWYQQKPGQAPRLLIYKVSNRFSGVPDRFSGSGSGTDFTLKISRVEAEDVGVYYCGQGTQVPYTFGQGTKLEIKRTVAAPSVFIFPPSDEQLKSGTASVVCLLNNFYPREAKVQWKVDNALQSGNSQESVTEQDSKDSTYSLSSTLTLSKADYEKHKVYACEVTHQGLSSPVTKSFNRGEC
notes: one-arm antibody
With B1, the “KD ratio to GLS3000 (Affinity up)” value came to 2.35.

B2: GLS3000 H27dV (Kabat) L chain altered form, one-arm antibody with CE115HA000 (antibody, human IgG1, kappa, L234A L235A, N297A, name in Kabat numbering)
heavy: QVQLVESGGGVVQPGRSLRLSCAASGFTFSNAWMHWVRQAPGKGLEWVAQIKAKSNNYATYYAESVKGRFTISRDDSKNSLYLQMNSLKTEDTAVYYCRYVHYGAYYGVDAWGQGTTVTVSSASTKGPSVFPLAPSSKSTSGGTAALGCLVKDYFPEPVTVSWNSGALTSGVHTFPAVLQSSGLYSLSSVVTVPSSSLGTQTYICNVNHKPSNTKVDKKVEPKSCDKTHTCPPCPAPEAAGGPSVFLFPPKPKDTLMISRTPEVTCVVVDVSHEDPEVKFNWYVDGVEVHNAKTKPREEQYASTYRVVSVLTVLHQDWLNGKEYKCKVSNKALPAPIEKTISKAKGQPREPQVYTLPPSRCELTKNQVSLSCAVKGFYPSDIAVEWESNGQPENNYKTTPPVLDSDGSFFLVSKLTVDKSRWQQGNVFSCSVMHEALHNHYTQKSLSLSPDYKDDDDK
chain: EPKSSDKTHTCPPCPAPELLGGPSVFLFPPKPKDTLMISRTPEVTCVVVDVSHEDPEVKFNWYVDGVEVHNAKTKPREEQYNSTYRVVSVLTVLHQDWLNGKEYKCKVSNKALPAPIEKTISKAKGQPREPQVCTLPPSRDELTKNQVSLWCLVKGFYPSDIAVEWESNGQPENNYKTTPPVLDSDGSFFLYSKLTVDKSRWQQGNVFSCSVMHEALHNRYTQKSLSLSP
light: DIVMTQSPLSLPVTPGEPASISCRSSQSLVVSNRNTYLHWYQQKPGQAPRLLIYKVSNRFSGVPDRFSGSGSGTDFTLKISRVEAEDVGVYYCGQGTQVPYTFGQGTKLEIKRTVAAPSVFIFPPSDEQLKSGTASVVCLLNNFYPREAKVQWKVDNALQSGNSQESVTEQDSKDSTYSLSSTLTLSKADYEKHKVYACEVTHQGLSSPVTKSFNRGEC
notes: one-arm antibody
Turning to B2, the “KD ratio to GLS3000 (Affinity up)” value is 354.

B3: GLS3000 H27dW (Kabat) L chain altered form, one-arm antibody with CE115HA000 (antibody, human IgG1, kappa, L234A L235A, N297A, name in Kabat numbering)
heavy: QVQLVESGGGVVQPGRSLRLSCAASGFTFSNAWMHWVRQAPGKGLEWVAQIKAKSNNYATYYAESVKGRFTISRDDSKNSLYLQMNSLKTEDTAVYYCRYVHYGAYYGVDAWGQGTTVTVSSASTKGPSVFPLAPSSKSTSGGTAALGCLVKDYFPEPVTVSWNSGALTSGVHTFPAVLQSSGLYSLSSVVTVPSSSLGTQTYICNVNHKPSNTKVDKKVEPKSCDKTHTCPPCPAPEAAGGPSVFLFPPKPKDTLMISRTPEVTCVVVDVSHEDPEVKFNWYVDGVEVHNAKTKPREEQYASTYRVVSVLTVLHQDWLNGKEYKCKVSNKALPAPIEKTISKAKGQPREPQVYTLPPSRCELTKNQVSLSCAVKGFYPSDIAVEWESNGQPENNYKTTPPVLDSDGSFFLVSKLTVDKSRWQQGNVFSCSVMHEALHNHYTQKSLSLSPDYKDDDDK
chain: EPKSSDKTHTCPPCPAPELLGGPSVFLFPPKPKDTLMISRTPEVTCVVVDVSHEDPEVKFNWYVDGVEVHNAKTKPREEQYNSTYRVVSVLTVLHQDWLNGKEYKCKVSNKALPAPIEKTISKAKGQPREPQVCTLPPSRDELTKNQVSLWCLVKGFYPSDIAVEWESNGQPENNYKTTPPVLDSDGSFFLYSKLTVDKSRWQQGNVFSCSVMHEALHNRYTQKSLSLSP
light: DIVMTQSPLSLPVTPGEPASISCRSSQSLVWSNRNTYLHWYQQKPGQAPRLLIYKVSNRFSGVPDRFSGSGSGTDFTLKISRVEAEDVGVYYCGQGTQVPYTFGQGTKLEIKRTVAAPSVFIFPPSDEQLKSGTASVVCLLNNFYPREAKVQWKVDNALQSGNSQESVTEQDSKDSTYSLSSTLTLSKADYEKHKVYACEVTHQGLSSPVTKSFNRGEC
notes: one-arm antibody
Turning to B3, the “KD ratio to GLS3000 (Affinity up)” value was 1.86.

B4: GLS3000 H27dS (Kabat) L chain altered form, one-arm antibody with CE115HA000 (antibody, human IgG1, kappa, L234A L235A, N297A, name in Kabat numbering)
heavy: QVQLVESGGGVVQPGRSLRLSCAASGFTFSNAWMHWVRQAPGKGLEWVAQIKAKSNNYATYYAESVKGRFTISRDDSKNSLYLQMNSLKTEDTAVYYCRYVHYGAYYGVDAWGQGTTVTVSSASTKGPSVFPLAPSSKSTSGGTAALGCLVKDYFPEPVTVSWNSGALTSGVHTFPAVLQSSGLYSLSSVVTVPSSSLGTQTYICNVNHKPSNTKVDKKVEPKSCDKTHTCPPCPAPEAAGGPSVFLFPPKPKDTLMISRTPEVTCVVVDVSHEDPEVKFNWYVDGVEVHNAKTKPREEQYASTYRVVSVLTVLHQDWLNGKEYKCKVSNKALPAPIEKTISKAKGQPREPQVYTLPPSRCELTKNQVSLSCAVKGFYPSDIAVEWESNGQPENNYKTTPPVLDSDGSFFLVSKLTVDKSRWQQGNVFSCSVMHEALHNHYTQKSLSLSPDYKDDDDK
chain: EPKSSDKTHTCPPCPAPELLGGPSVFLFPPKPKDTLMISRTPEVTCVVVDVSHEDPEVKFNWYVDGVEVHNAKTKPREEQYNSTYRVVSVLTVLHQDWLNGKEYKCKVSNKALPAPIEKTISKAKGQPREPQVCTLPPSRDELTKNQVSLWCLVKGFYPSDIAVEWESNGQPENNYKTTPPVLDSDGSFFLYSKLTVDKSRWQQGNVFSCSVMHEALHNRYTQKSLSLSP
light: DIVMTQSPLSLPVTPGEPASISCRSSQSLVSSNRNTYLHWYQQKPGQAPRLLIYKVSNRFSGVPDRFSGSGSGTDFTLKISRVEAEDVGVYYCGQGTQVPYTFGQGTKLEIKRTVAAPSVFIFPPSDEQLKSGTASVVCLLNNFYPREAKVQWKVDNALQSGNSQESVTEQDSKDSTYSLSSTLTLSKADYEKHKVYACEVTHQGLSSPVTKSFNRGEC
notes: one-arm antibody
Regarding B4, the “KD ratio to GLS3000 (Affinity up)” value came out at 3.05.

B5: GLS3000 H27dT (Kabat) L chain altered form, one-arm antibody with CE115HA000 (antibody, human IgG1, kappa, L234A L235A, N297A, name in Kabat numbering)
heavy: QVQLVESGGGVVQPGRSLRLSCAASGFTFSNAWMHWVRQAPGKGLEWVAQIKAKSNNYATYYAESVKGRFTISRDDSKNSLYLQMNSLKTEDTAVYYCRYVHYGAYYGVDAWGQGTTVTVSSASTKGPSVFPLAPSSKSTSGGTAALGCLVKDYFPEPVTVSWNSGALTSGVHTFPAVLQSSGLYSLSSVVTVPSSSLGTQTYICNVNHKPSNTKVDKKVEPKSCDKTHTCPPCPAPEAAGGPSVFLFPPKPKDTLMISRTPEVTCVVVDVSHEDPEVKFNWYVDGVEVHNAKTKPREEQYASTYRVVSVLTVLHQDWLNGKEYKCKVSNKALPAPIEKTISKAKGQPREPQVYTLPPSRCELTKNQVSLSCAVKGFYPSDIAVEWESNGQPENNYKTTPPVLDSDGSFFLVSKLTVDKSRWQQGNVFSCSVMHEALHNHYTQKSLSLSPDYKDDDDK
chain: EPKSSDKTHTCPPCPAPELLGGPSVFLFPPKPKDTLMISRTPEVTCVVVDVSHEDPEVKFNWYVDGVEVHNAKTKPREEQYNSTYRVVSVLTVLHQDWLNGKEYKCKVSNKALPAPIEKTISKAKGQPREPQVCTLPPSRDELTKNQVSLWCLVKGFYPSDIAVEWESNGQPENNYKTTPPVLDSDGSFFLYSKLTVDKSRWQQGNVFSCSVMHEALHNRYTQKSLSLSP
light: DIVMTQSPLSLPVTPGEPASISCRSSQSLVTSNRNTYLHWYQQKPGQAPRLLIYKVSNRFSGVPDRFSGSGSGTDFTLKISRVEAEDVGVYYCGQGTQVPYTFGQGTKLEIKRTVAAPSVFIFPPSDEQLKSGTASVVCLLNNFYPREAKVQWKVDNALQSGNSQESVTEQDSKDSTYSLSSTLTLSKADYEKHKVYACEVTHQGLSSPVTKSFNRGEC
notes: one-arm antibody
In the case of B5, the “KD ratio to GLS3000 (Affinity up)” value stood at 13000.

B6: GLS3000 H27dY (Kabat) L chain altered form, one-arm antibody with CE115HA000 (antibody, human IgG1, kappa, L234A L235A, N297A, name in Kabat numbering)
heavy: QVQLVESGGGVVQPGRSLRLSCAASGFTFSNAWMHWVRQAPGKGLEWVAQIKAKSNNYATYYAESVKGRFTISRDDSKNSLYLQMNSLKTEDTAVYYCRYVHYGAYYGVDAWGQGTTVTVSSASTKGPSVFPLAPSSKSTSGGTAALGCLVKDYFPEPVTVSWNSGALTSGVHTFPAVLQSSGLYSLSSVVTVPSSSLGTQTYICNVNHKPSNTKVDKKVEPKSCDKTHTCPPCPAPEAAGGPSVFLFPPKPKDTLMISRTPEVTCVVVDVSHEDPEVKFNWYVDGVEVHNAKTKPREEQYASTYRVVSVLTVLHQDWLNGKEYKCKVSNKALPAPIEKTISKAKGQPREPQVYTLPPSRCELTKNQVSLSCAVKGFYPSDIAVEWESNGQPENNYKTTPPVLDSDGSFFLVSKLTVDKSRWQQGNVFSCSVMHEALHNHYTQKSLSLSPDYKDDDDK
chain: EPKSSDKTHTCPPCPAPELLGGPSVFLFPPKPKDTLMISRTPEVTCVVVDVSHEDPEVKFNWYVDGVEVHNAKTKPREEQYNSTYRVVSVLTVLHQDWLNGKEYKCKVSNKALPAPIEKTISKAKGQPREPQVCTLPPSRDELTKNQVSLWCLVKGFYPSDIAVEWESNGQPENNYKTTPPVLDSDGSFFLYSKLTVDKSRWQQGNVFSCSVMHEALHNRYTQKSLSLSP
light: DIVMTQSPLSLPVTPGEPASISCRSSQSLVYSNRNTYLHWYQQKPGQAPRLLIYKVSNRFSGVPDRFSGSGSGTDFTLKISRVEAEDVGVYYCGQGTQVPYTFGQGTKLEIKRTVAAPSVFIFPPSDEQLKSGTASVVCLLNNFYPREAKVQWKVDNALQSGNSQESVTEQDSKDSTYSLSSTLTLSKADYEKHKVYACEVTHQGLSSPVTKSFNRGEC
notes: one-arm antibody
For B6, the “KD ratio to GLS3000 (Affinity up)” value was 1.98.

The record behind these values is patent publication US20240270846A1 (published 2024).
